Measured values from the nanobody polyreactivity screen of Harvey et al. (2022).

assay: yeast display, Sf9 membrane polyspecificity reagent, FACS + sequencing; frameworks hold sequencing errors
Outline: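 Galactose-induced (36–48 hours) yeast carrying a synthetic nanobody display library were exposed to 10% biotinylated, detergent-solubilized Sf9 membrane reagent at 4 °C for 1 hour. FACS followed streptavidin microbead enrichment, using low and high (top ~1%) gates for expression (anti-HA) and reagent binding (streptavidin). Colony PCR, MiSeq 2 × 250 sequencing and CDR-length filtering followed. Labels for polyreactivity reflect the gate of origin.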

Sequence	polyreactivity (PSR sort gate)
QVQLVESGGGLVQAGGSLRLSCAASGRIFQYYTMGWYRQAPGKERELVAAISYGGGSTYYADSVKGRFTISRDHAKNTVYLQMNSLKPEDTAVYYCNAVTYSRRYAYYYWGQGTQVTVSS	high polyreactivity
QVQLVESGGGLVQAGGSLRLSCAASGRIFPTNAMGWYRQAPGKERELVAAIPVSGGSTYYADSVKGRFTISRDNAKNTVYLQMNSLKPEDTAVYYCAVDDRASVGSRLDHWGQGTQVTVSS	low polyreactivity
QVQLVESGGGLVQAGGSLRLSCAASGSIFAAYAMGWYRQAPGKERELVAVINSRGGITSYADSVKGRFTISRDNAKNTVYLQMNSLKPEDTAVYYFAARTWYSWRYDYWGQGTQVTVSS	high polyreactivity
QVQLEESGGGLVQAGGSLRLSCAASGFTFGFYAMGWYRQAPGKERELVARISYSGGSTYYADSVKGRFTISRDNAKNTVYLQMNSLKPEDTAVYYCNRGYRRLQEDYWGQGTQVTVSS	high polyreactivity
QVQLVESGGGLVQAGGSLRLSCAASGRTFYQYGMGWYRQAPGKERELVAAISDSGGGTYYADSVKGRFTISRDNAKHTVYLQMNSLKPEDTAVYFCAATYVGPRRRYYYWGQGTQVTVSS	high polyreactivity
QVQLVESGGGLVQAGGSLRLSCAASGSTFLRNAMGWYRQAPGKERELVAAISWSAGSTYYADSVKGRFTISRDNAKNTVYLQMNSLKPEDTAVYYCAVDKYVFVSYSFYFEYDYWGQGTQVTVSS	low polyreactivity
QVQLVESGGGLVQAGGSLRLSCAASGRTFAYYAMGWYRQAPGKERELVAAITRGGSTYYADSVKGRFTISRDNAKNTVYLQMNSLKPEDTAVYYCATLYTRYDSYLVKGKYGYWGQGTQVIVSS	high polyreactivity
QVQLVESGGGLVQAGGSLRLSCAASGSTFKQYAMGWYSQAPGKERELVAAISLSGSRTYYADSVKVRFTISRDNAKNTVYLQMKSLIPVDTAVYYCAAELRSSAGWLYDYWGQGTQVTVSS	high polyreactivity
QVQIVESGGGLVQGGGSLRLSCAASGSIFGGNAMGWYRQAPGKERELVATITVRGGSTYNADSVKGRFTISRDNAKNTVYLQMNSLKPEDTAVYYCAARGVYLLPKYDYWGQGTQVTVSS	low polyreactivity
QVQLVESGAGLVQAGGSLRLSCAASGLTSTNNAMGWYRQAPGKERELVAAITSGSTTNYADSVKGRFTISRDNAKNTVYLQMNSLKPEDTAVYYCAAQYGVWWRRYYYPEYDYWGQGTQVTVSS	low polyreactivity
QGQLVESGGGLVQAGGSLRLSCAASGNTFWYYAMGWYRQAPGKEREVVATISSSGGSTSYAHSVKGRFTISRDNAKNTVYLQMNSLKPVDTAVYYCAKPIRYFAAYPLTKGYYYWGQCTQVTVSS	high polyreactivity
QVQLVESGGGLVQAGGSLRLSCAASGIIFRYYAMGWYRQAPGKERELVAAISSSTGNTYYADSVKGRFTISRDNAKNTVYLQMNSLKPEDTAVYYCAARTRQISIVGYNYWGQGTQVTVSS	high polyreactivity
QVQLVESGGGLVQAGGSLRLSCAASGFIFFRYSMGWYRQAPGKERELVATINLGGGSTYADSVKGRFTISRDNAKNTVYLQMTSLKPEDTAVYYSAADVANSIYDYWGQGTLVTVSS	low polyreactivity
QVQLVESGGGLVHAGGSLRLSCAASGRTFIRYAMGWYIQAPGKERQLVAAISSSGGSTYYADSVKGRFTISRDNAKNTVYLQMNSLKPEDTAVYYCNAYVYYSHEDDYWGQGTQVTVSS	high polyreactivity
QVQLVESGGGLVQAGGSLRLSCAASGRIFSFNAMGWYRQAPGKERELVASGGSTYADSVKGRFTISRDNAKNTVYLQMNSLKPEETAVYYCAADPFYYFPSPFDYWGQGTQVTVSS	low polyreactivity
HVQLVESGGGLVQAGGSLRLSCAASGFTFDAYAMGWYRQAPGKERELVAAISFSGGSTYYADSVKGRFTISRDNAKNTVYLQMNSLKPEDTAVYYCAAYSYTRTYGRHNYWGQGTQVTVSS	high polyreactivity
QVQLVESGGGLVQAGGSLRLSCAASGRIFFIYAMGWYRQAPGKERELVAAISYDSGSTYYADSVKGRFTISRDNAKNTVYLQMNSLKPEDTAVYYCAAEWGLVIYSTYGYDYWGQGTQVTVSS	low polyreactivity
QVQLVESGGGLVQAGGSLRLSCAASGSTFGGYAMGWYRQAPGKERELVAAISFDGGSTYADSVKGRFTISRDNAKNTVYLQMNSLKPEDTAVYYCAVKFWLVIQFDYCGQGTQVTVSS	low polyreactivity
QVQLVESGGGLVQAGGSLRLSCAASGFIFEPYAMGWYRQAPGTERELVAAISATDDSTYYADSVKGRFTISRDNAKNTVYLQMNSLKPEDTAVYYCNATYYIIALPYDYWGQGTQVTVSS	low polyreactivity
QVQLVESGGGLVQAGGSLRISCDASGRTFYYYAMGWYRQAPGKERELVASITITDSTNYADSVKGRFTISRDNAKNTVYLQMNSLKPEDTAVYYCAKRGWGTSFYLSDYWGQGTEVTVSS	low polyreactivity
QVQLVESGGGLVQAGGSLRLRCAASGSTFAYYAMGWYRQAPGKDRELVARIRSSGVSTYYADSVKGRFTISRDNPNNTVSLQMNTLKPEDTAGYYCHTAYAGVRYDSWGQGTQVTVSS	low polyreactivity

Sequence	polyreactivity (PSR sort gate)
QVQLQESGGGLVQAGGSLRLSCAASGYISHADEMGWYRQAPGKEHELVASISNGGSTNYADSVKGRFTISRDNAKNTVYLQRNSLKSEDTAVYYCAAWTGQVDIHYYWGQGTQVTVSS	low polyreactivity
QVQLVESGGGLVQAGGSLRLSCAASGSIFGLYAMGWYRQAPGKERELVAAINQSGGSTSYADSVKGRFTISRDNAKNTVYLQMNSLKPEDTAVYYCAADSAFYTGSDYGWSDYDYWGQGTQVTVSS	low polyreactivity
QVQLVESGGGLVQAGGSLRLSCSASGYIFSKYGMGWYRQAPGKEREFVAAISIRGGNTYYADSVKGRFTISRDNAKNTVYLQMTSLKPEDTAVYYCNALSYGRYLNYRGGMDYWGQGTQVTVSS	high polyreactivity
QVQLVESGGGLVQAGGSLRLSCAASGSTFFRYAMGWYRQAPGKERELVAAISASGGRTYYADSVKGRFTISRDNAKNTVYLQMNSLKPEDTAVYYCNRQYGPYQYYYWGQGTQVTVSS	high polyreactivity
QVQLVESGGGLGQAGGSLRLSCAASGFTFYAYVMGWYRQAPGKESELVAAISGSGSSTYYADSVKGRFTISRDNAKNTVDLEMNSLKPEDTAVYYCGAPQLYQYGGFGYWGQGTQVTVSS	high polyreactivity
QVQLLESGGGLVQAGGSLRLSCAASGRIFVTYAMGWYRQAPGKERELVAAITSRGGRTYYADSVKGRFTISRDNAKNTVYLQMNSLKPEATAVYYCAAYPGPGARYYYWGQGTQVTVSS	high polyreactivity
QFQLVESGGGLVQAGGSLRLSCAASGSIFRAYAMGRYRQATGKERELVADISRSGGSTYYADSVKGRFTISRDNAKNTVYLQMNSLTQEVTAVYYCAAVFYLYSNLYGEYDYWGQGTQVTVSS	low polyreactivity
QVHLVESRGVLVQAGCSLRLSCAASGRIFTDYAMGWYRQAPRKERELVAAISGSGGSTYYADSVKVRFSISRDNAKNNVYLQMNSLKPEDTAVYYCAARVARRYEWGQGTQVTVSS	high polyreactivity
QVQLVESGGGLVQAGGSLRLSCAASGLIFHFNAMGWYRQAPGKERELVAAITSIGGSTFYADSVKGRFTISRDNAKNTVYLQMNSLKPEDTAVYYCAAAISYFFPDYDYWGQGTQVTVSS	low polyreactivity
QVKLVESGGGLVQAVGILSLSCAASGSILGLYAMGWYRQAPGKERELVASITSSGSTYYADSVKGRFTISRDNAKNTVYLQMIILKPEDTAVYYCAAVVSYYYYIRYDYWGQGTQVTVSS	low polyreactivity
QVQLVESGGGLVQAGGSLRLSCDASGRTFVVNAMGWYRQAPGKERELVAAITRRGGITYYADSVKGRFTISRDNAKNTVYLQMNSLKPEDTAVYYCAADRSYYPDTRTTYGYNYWGQGTQVTVSS	low polyreactivity
QVQRVESGGGLVQAGGSLRLSCAASGSIFLSYDMGWYRQAPGKERELVAAITQSGGSTYYADSVKGRFTISRDNAKNTVYLQMNSLKPQDTAVYSCAVRVSGPRGYDYEYWGQGTQVTVSS	low polyreactivity
QVQLVESGGGLVQAAGSLPLSCAASGSTLLNYAMGWYRQAPGKQSQLVAAISSSGGRTYYADSVKGRFTISRDNAKNTVYLQMNSLKPEDTAVYYCNKGLGYPKTFGYWGQGTQVTVSS	high polyreactivity
QVQLVESGGGLVQAGGSLRLSCAASGFIFASYAMGWYRQAPGKERELVAAITQSRGITYYADSVKGRFTISRDNAKNTVYLQMNSLKPEDTAGYYCNTPLLKRTSRGRERNYWGQGTQVTVSS	low polyreactivity
QVQLVESGGGLVQAGGSLRLSCAASGYIVYFNAMGWYRQAPGKERELVASIDSGGSTNYADSVKGRFTISRDNAKNTVYLQMNSLKPADTAVYYCAADKLYQPGIGDDYWGQGTQVTVSS	low polyreactivity
QVQRVESGGGLVLAGGSLRLSSAASGITFVRYAMGGYRQAPVKERELVAVISRGGITNYADSVMGRFTISRDNAKNTVYLQMNSLKPEDTAVYYCAVRARSYVRTYDYWGQGTQVTVSS	high polyreactivity
QVQLQGSGGGLVQAGGSLRLSCAASGYNFQNVPMGWNRQAPGKERELVAGIDNGTSTNYADSVNGRFTISRDNAKNTVYLQMNSLKPEDTAVYYCAAAGQADDTLGYWGQGTQVTVSS	low polyreactivity
QVQLVESGGGLVQAGGSLRLSCAASGFTLWYNGMGWYRQAPGKERELVATISSRGGGSTYYADSVKGRFTISRDNAKNTVYLQMNSLKPEETAVYYCAADAYYLVPTEGDYWGQGTQVTVSS	low polyreactivity
QVQLVESGGGLVQAGGSLRLSCAASGSTFQFYAMGWYRQAPGKERELVASITSRGGNTHYADSVKGRFTISRDNAKNTVYLQMNSLKPEDTAVYYCAARGGWYGTYDYWGQGTQVTVSS	low polyreactivity
QVQLVESGGGLVQAGGSLRLSCAASGRIFYRNAMGGSRQAPGKERELVAAISYSGGSTYYADSVKGRFTISRDNAKNTVYLQMNSLKPEDTAVYYCAAARDRWGNYWGQGTQVTVSS	high polyreactivity
